Earlier results on one substance are cited in publication PMC7539009.

This data set concerns the target VPS29 (Homo sapiens) (UniProt Q9UBQ0). Description: ITC. On the technique in general: Isothermal titration calorimetry measures the heat released or taken up as one component is titrated into another.

Turning to TBC1D5 132-158 (from UniProt Q92609), the Kd (in general, the equilibrium constant for the complex coming apart) was 20 µM.
